# Counter-ions that a name gives are not always drawn.
# Tests used:
# [1] = test system: E. coli; test: Antimicrobial activity of AB released from AB-FG (zone of inhibition); format: cell-based; details: eluates on agar plates, 18 hours at 37° C.
# Description: FIG. 27. […] Then the diameter of the zone of inhibition was measured.
# In order to measure the concentration and biological activity of the TFT which had been released from the TFT-FG disks, the eluted TFT was thawed and was analyzed spectrophotometrically at 320 nm and/or biologically by the inhibition of E. coli grown on agar plates.
# The antimicrobial activity of the AB released from the AB-FG was estimated by measuring the diameters of the zones of inhibition generated by the eluate from the 6 mm diameter disks form the daily collected PBS or saliva surrounding the AB-FG. The eluates from unsupplemented FG served as controls. AB solutions of knwon concentration were used as standards. […] To make the culture plates, 100 μl of the bacterial cell suspension, containing approximately 10^8 cells/ml, was mixed with 3 ml of top agar at 50° C. and immediately poured onto the plate hard, bottom agar to make a uniform layer of cells. The plates were incubated at 37° C. for 18 hours.
# [2] = test system: human dermal fibroblasts (HDFs); test: Cell migration assay to FGF released from FG; format: cell-based; details: 24 hours
# Description: FIG. 41. Graph showing the dose-response relationship of the chemotactic response of HDFs to FGF-4 in solution and in FG. FGF-4 was incorporated into FG and placed in the bottom well of chemotaxis chambers. The amount of FGF in the FG was sufficient to result in the indicated concentrations when evenly distributed throughout the FG and medium in the lower chamber. Negative controls included medium alone and FG without FGF. Medium containing FGF-4 at a concentration of […] in the lower chamber was utilized as a positive control.
# Chemotaxis chambers and cells were utilized as described above. Fifty μl of 8 mg/ml Topical Fibrinogen Complex (TFC, American Red Cross, Rockville, Md.) was added to the bottom of 24 well plates. Forty μl of test growth factor+/−heparin at a final concentration of 10 U/ml (FGF-1, FGF-4 with heparin, FGF-2 alone) was added to the TFC and thoroughly mixed. Ten μl of bovine Thrombin (Armour Pharmaceutical Company, Kankakee, Ill.) was added and mixed thoroughly. The components were allowed to gel at room temperature for approximately 30 minutes. Total volume in the lower and upper chambers was made up to 0.5 ml each with DMEM+0.1% BSA. The concentration of the FGF's added to the TFC was adjusted to produce the desired overall concentration as determined by: [formula] The assay was performed at 37° C. in a5% CO2 humidified chamber for approximately 24 hours. […]
# [3] = test system: NIH 3T3 fibroblasts; test: Cell chemotaxis assay (modified Boyden's chamber), NIH 3T3 fibroblasts; format: cell-based; details: for concentration of maximum stimulation of migration: FGF-1 in the presence of 10 U/ml heparin
# Description: (§1) NIH/3T3 fibroblasts at passage 126 were purchased from the American Type Culture Collection, Rockville, Md. Cultures from passages 129-133 were used in the chemotaxis assays. Cultures were propagated in DMEM supplemented with 10%. Calf serum and approximately 1% antibiotic antimycotic solution. Human dermal fibroblasts (HDFs) were purchased from Clonetics, Inc. (San Diego, Calif.) at passage 2. Cultures from passages 3-5 were used in the chemotaxis assays. Cultures were cultivated in DMEM supplemented with 20% FBS (Hyclone Laboratories, Inc., Logan, Utah) and approximately 1% antibiotic antimycotic solution (Gibco, Grand Island, N.Y.).
# The procedure used to determine cellular chemotaxis was a combination of two known methodologies. A modification of Boyden's chamber was used as follows: Millicell-PCF (Millipore, Inc., Bedford, Mass.) (12.0 μm) 12.0 mm diameter inserts were placed in individual wells of 24 well plates to create the upper and lower chemotaxis chambers. Chemotaxis results were arrived at by performing checkerboard analysis for every combination of cells and growth factors. […] Briefly, cultures were trypsanized and placed in DMEM+0.1% Bovine Serum Albumin (BSA) (Sigma Chemical Co., St. Louis, Mo.) for approximately one hour at 37° C. in a 5% CO2 humidified chamber. Tow to 2.5×10^5 cells in 50 μl were added per insert to the upper chamber of the setup of the 24 well plates. Treatments were added as mentioned above. The assay was kept at 37° C. in a 5% CO2 humidified chamber for 4 hours. All combinations tested were performed in triplicate. At the end of 4 hours, the plates were removed from the incubator and the filters were stained following the protocol for staining included with the Millicell-PCT inserts. Briefly, the fluid surrounding the inside and outside of the Millicell-PCF inserts were removed. Three percent glutaraldehyde (Sigma Chemical Co., St. Louis, Mo.) was added to the outside and inside of the inserts for approximately 20 minutes. Following removal of the 3.0% glutaraldehyde, 0.5% Triton X-100 (E.M. Science, Cherry Hill, N.J.) was added for 5-7 minutes. On removal of the 0.5% Triton X-100, Fisher's Hematoxylin Solution Gill's Formulation (Fisher Scientific, Newark, Del.) No.1 was added for about 10 minutes. This solution was washed off in running distilled water for about 5 minutes. Using a cotton swab the upper side of the filter was swabbed to remove cells which had not migrated. Filters, were mounted lower side facing up on slides in Crystal Mount™ (Biomedia, Inc., Foster City, Calif.) solution and 10 random field were counted per slide both visually at 400× and at 200×using an Image Analyzing System to automate the enumeration of the cells on the underside of the filters.
# (§2) As required, checkerboard analysis was carried out to determine random migration, and positive and negative chemotaxis. Growth factors were added to the upper and/or lower chambers to observe whether cells migrated towards the GF alone (chemotaxis), whether migration was random irrespective of whether the growth factor was added to the upper or lower well (chemokinesis) or whether cell migration was against the chemotactic gradient (negative chemotaxis).
# [4] = test system: human dermal fibroblasts (HDFs); test: Cell chemotaxis assay (modified Boyden's chamber), human dermal fibroblasts; format: cell-based
# Description: as §1
# The procedure used to determine cellular chemotaxis was a combination of two known methodologies. A modification of Boyden's chamber was used as follows: Millicell-PCF (Millipore, Inc., Bedford, Mass.) (12.0 μm) 12.0 mm diameter inserts were placed in individual wells of 24 well plates to create the upper and lower chemotaxis chambers. Chemotaxis results were arrived at by performing checkerboard analysis for every combination of cells and growth factors. Concentrations ranging from 0.1, 1, 10, 100 ng/ml with/without added heparin (10 U/ml) were used for FGF-1, FGF-2 (no heparin) and FGF-4 with all the cell types mentioned in the materials section. Briefly, cultures were trypsanized and placed in DMEM+0.1% Bovine Serum Albumin (BSA) (Sigma Chemical Co., St. Louis, Mo.) for approximately one hour at 37° C. in a 5% CO2 humidified chamber. Tow to 2.5×10^5 cells in 50 μl were added per insert to the upper chamber of the setup of the 24 well plates. Treatments were added as mentioned above. The assay was kept at 37° C. in a 5% CO2 humidified chamber for 4 hours. All combinations tested were performed in triplicate. At the end of 4 hours, the plates were removed from the incubator and the filters were stained following the protocol for staining included with the Millicell-PCT inserts. Briefly, the fluid surrounding the inside and outside of the Millicell-PCF inserts were removed. Three percent glutaraldehyde (Sigma Chemical Co., St. Louis, Mo.) was added to the outside and inside of the inserts for approximately 20 minutes. Following removal of the 3.0% glutaraldehyde, 0.5% Triton X-100 (E.M. Science, Cherry Hill, N.J.) was added for 5-7 minutes. On removal of the 0.5% Triton X-100, Fisher's Hematoxylin Solution Gill's Formulation (Fisher Scientific, Newark, Del.) No.1 was added for about 10 minutes. This solution was washed off in running distilled water for about 5 minutes. Using a cotton swab the upper side of the filter was swabbed to remove cells which had not migrated. Filters, were mounted lower side facing up on slides in Crystal Mount™ (Biomedia, Inc., Foster City, Calif.) solution and 10 random field were counted per slide both visually at 400× and at 200×using an Image Analyzing System to automate the enumeration of the cells on the underside of the filters.
# as §2
# [5] = Washout of 125I-HBGF-1 from FG-treated PTFE grafts in rabbit aortas; format: in vivo, New Zealand white rabbits
# Description: In general, the modified F was sterilely prepared by adding approximately 1 ng/cm^2 area of the inner and outer graft surfaces of human recombinant […], 20 μg/cm^2 porcine intestinal mucosal heparin, and 2.86 mg/cm^2 fibrinogen to 2.86×10^−2 U/cm^2 reconstituted, commercially available, human thrombin (1000 U/ml) to induce polymerization.
# The […] was specifically prepared as follows. Fibrinogen was reconstituted by adding 500 mg of fibrinogen into 25 ml of PBS to produce a fibrinogen concentration of 20 mg/ml of PBS. Three ml of this solution which contained 60 mg fibrinogen were placed into […] Eppendorf plastic tubes and maintained at −70° C. Each of these aliquots was used individually.
# The thrombin was reconstituted by diluting a commercially available preparation thereof (Armour Pharmaceutical Co., Kankakee, Ill.) at a concentration of 1000 U/ml by a factor of 1:10 in sterile solution to produce a concentration of 100 U/ml. This thrombin solution was again diluted 1:10 to produce a solution of 10 U/ml.
# The bovine heparin (Upjohn, Kalamazoo, Mich.) was reconstituted by diluting the preparation at a concentration of 1000 U/ml by a factor of 1:1000 using normal saline.
# One and 48/100 (1.48) ml of the reconstituted fibrinogen, 63 μL of the reconstituted heparin, plus 15.66 μL of ^125I-HBGF-1 were mixed in a glass scintillation tube. This mixture was then aspirated into a 3 ml plastic syringe. Five ml of the reconstituted thrombin was placed into a glass scintillation tube.
# One end of the expanded PTFE graft was placed over a plastic-3 way stopcock nozzle and was secured there with a 2-0 silk tie. The PTFE was then encircled with a 3×3 cm square of Parafilm™ which was then crimped there with a straight hemostat to establish a watertight seal. A second 2-0 silk tie was positioned over the parafilm adjacent to the stopcock to form another seal. A straight hemostat was then used to clamp the distal 2 mm of the PTFE/parafilm to seal this end.
# Equal volumes of fibrinogen and thrombin solution prepared as described above were mixed and allowed to react for approximately 30 seconds which is when polymerization occurs. The thrombin-polymerized fibrin is then opaque. (This time factor is approximate and varies from one thrombin lot to another. The appropriate length of time to polymerization can be determined by viewing the opacity of the mixture). The fibrin/thrombin mixture was aspirated into a one cc syringe. (NOTE: The volume of this graft was 0.42 ml. For a graft with a larger volume one needs to use a larger syringe). […] The treated graft was then ready for implantation. […]
Molecule,antimicrobial activity of released AB [1],checkerboard analysis [3],concentration of maximum stimulation of migration [3] [ng/mL],checkerboard analysis [4],concentration of maximum stimulation of migration [4] [mg/mL],maximal migratory response over negative control [4] [fold],other results
"O=C(O)c1cn(C2CC2)c2cc(N3CCNCC3)c(F)cc2c1=O [CIP, Ciprofloxacin HCl]",parallels the profiles determined spectrophotometrically,–,–,–,–,–,–
"Cc1ncc([N+](=O)[O-])n1CCO [MET, Metronidazole]",parallels the profiles determined spectrophotometrically,–,–,–,–,–,–
FGF-2: recombinant fibroblast growth factor-2,–,chemotactic,1,chemotactic,10,12,concentration in FG eliciting peak chemotactic response [2]: 0.01 mg/mL
^125I-HBGF-1: radiolabelled human recombinant HBGF-1 in FG applied to PTFE grafts,–,–,–,–,–,–,"remaining 125I-HBGF-1, percentage of the zero time value ([5]; after 1 week): 13.44%±6.9%; washout of 125I-HBGF-1 ([5]; after 1 hr): −0.03 %/min; remaining 125I-HBGF-1, percentage of the zero time value ([5]; after 30 days): 3.8%±1.1%; washout of 125I-HBGF-1 ([5]; between 5 and 60 minutes): −24.1 %/min"
"FGF-4: recombinant fibroblast growth factor-4 (protein, UniProt P08620 31-206, looked up) Fibroblast growth factor 4: APTAPNGTLEAELERRWESLVALSLARLPVAAQPKEAAVQSGAGDYLLGIKRLRRLYCNVGIGFHLQALPDGRIGGAHADTRDSLLELSPVERGVVSIFGVASRFFVAMSSKGKLYGSPFFTDECTFKEILLPNNYNAYESYKYPGMFIALSKNGKTKKGNRVSPTMKVTHFLPRL",–,chemotactic,10,chemotactic,10,10,incorporated and total concentration in FG eliciting maximal migratory response [2]: 1 ng/mL
